Results reported in US10513545B2, “Fusion polypeptide in which anti-inflammatory polypeptide and ferritin monomer fragment are bound and pharmaceutical composition for preventing and treating inflammatory diseases, containing same as active ingredient” (KYUNGPOOK NATIONAL UNIVERSITY INDUSTRY-ACADEMIC COOPERATION …, priority 2015, dated 2019).

Tests used:
endothelial cells = experiment: in vivo binding to endothelial cells (intravenously injected mice, isolated mouse endothelial cells); settings: mouse animal model, FIG. 12B
Description: The endothelial cells were isolated according to the manufacturer's (Dynal Biotec, Lake Success, N.Y.) instructions, using Dynabeads coupled to anti-CD31 antibody and the Dynal Magnetic holder. Briefly, for endothelial cell isolation, four to six mice (6-10 weeks old) were anesthetized, followed by exposure of the peritoneal cavity. Excised lungs and hearts were put into RPMI media, followed by removing other tissues from the heart and lungs, and then rinsing once in PBS. The lungs and heart were incubated with 1.0 mg/mL of collagenase A in a 50 mL tube for 1 h at around 37° C. Every 5 min during this incubation, the tube was gently agitated for a few seconds, and then the suspension was transferred into a new 50 mL tube by passing it through the 70 um tissue sieve (BD Falcon). The filtered cell suspension was centrifuged for 10 min at 1000 rpm. After removal of the supernatant, the cell pellet was washed once with cold PBS in a new 15-mL tube. […]
A direct cell-binding assay was performed on HUVECs and in vivo using fluorescence labeled-PC-Gla, TFG, and TFMG. […] The fluorescence value of the HUVECs or endothelial cells were measured with tightly bound PC-Gla, TFG, and TFMG, respectively. The concentrations of PC-Gla, TFG, and TFMG were measured by using the nanoparticle ratio of fluorescent dye per protein.

CLP-induced sepsis [1] = experiment: H&E staining and histopathological examination of lung in CLP-induced sepsis; format: in vivo, mouse; settings: for interstitial edema, infiltration of inflammatory cells and damage of pulmonary architecture: 200 nM intravenously 6 h after CLP, lungs 96 h after CLP, FIG. 15; for histopathologic score of pulmonary injury: in comparison with co-administration of PC-Gla and TRAP, FIG. 16
Method: (§1) To induce inflammation, male mice were anesthetized with 2% isoflurane (JW Pharmaceutical, Republic of Korea) in oxygen delivered via a small rodent gas anesthesia machine (RC2, Vetequip, Pleasanton, Calif.), first in a breathing chamber and then via a facemask. They were allowed to breathe spontaneously during this procedure. The CLP-induced inflammation model was prepared as previously described. In brief, a 2-cm midline incision was made to expose the cecum and adjoining intestine. The cecum was then tightly ligated with a 3.0-silk suture at 5.0 mm from the cecal tip and punctured once using a 22-gauge needle for the induction of high grade inflammation. It was then squeezed gently to extrude a small amount of feces from the perforation site and returned to the peritoneal cavity. The laparotomy site was then sutured with 4.0-silk. In sham control animals, the cecum was exposed but not ligated or punctured and then returned to the abdominal cavity. This protocol was approved by the Animal Care Committee at Kyungpook National University prior to the conduct of the study (IRP No, KNU 2012-13).
Male C57BL/6 mice underwent CLP and were administered PC-Gla with TRAP, TFG, or TFMG (200 nM) intravenously at 6 h after CLP (n=5). Mice were euthanized 96 h after CLP. To analyze the phenotypic change of the lungs in mice, lung samples were removed from each mouse, washed tree times in PBS (pH 7.4) to remove remaining blood, fixed in 4% formaldehyde solution (Junsei, Tokyo, Japan) in PBS, pH 7.4 for 20 h at 4° C. After fixation, the samples were dehydrated through ethanol series, embedded in paraffin, sectioned into 4-μm sections, and placed on a slide. The slides were de-paraffinized in a 60° C. oven, rehydrated, and stained with hematoxylin (Sigma). To remove over-staining, the slides were quick dipped three times in 0.3% acid alcohol, and counterstained with eosin (Sigma). They are then washed in ethanol series and xylene, and then coverslipped. Light microscopic analysis of lung specimens was performed by blinded observation to evaluate pulmonary architecture, tissue edema, and infiltration of the inflammatory cells. The results were classified into four grades where Grade 1 represented normal histopathology; Grade 2 represented minimal neutrophil leukocyte infiltration; Grade 3 represented moderate neutrophil leukocyte infiltration, perivascular edema formation, and partial destruction of pulmonary architecture; and Grade 4 included dense neutrophil leukocyte infiltration, abscess formation, and complete destruction of pulmonary architecture.

CLP-induced sepsis [2] = experiment: serum organ injury markers (ALT, AST, creatinine, BUN, LDH) in CLP-induced sepsis; format: in vivo, mouse; settings: FIG. 17
Method: as §1
Fresh serum was used for assaying aspartate transaminase (AST), alanine transaminase (ALT), blood urea nitrogen (BUN), creatinine, and LDH using biochemical kits (Mybiosource). To determine the concentrations of IL-6, IL-10, and TNF-α, commercially available ELISA kits were used according to the manufacturer's protocol (R&D Systems). Values were measured using an ELISA plate reader (Tecan, Austria GmbH, Austria).

CLP-induced sepsis [3] = experiment: in vivo vascular permeability assay (Evans blue leakage); design: species or system mouse; settings: CLP-operated mice, intravenous, FIG. 20
Method: CLP-operated mice were injected with PC-Gla with TRAP, TFG, or TFMG intravenously. After 6 h, 1% Evans blue dye solution in normal saline was injected intravenously into each mouse. Thirty minutes later, the mice were sacrificed, and the peritoneal exudates were collected after being washed with normal saline (5 mL) and centrifuged at 200×g for 10 min. The absorbance of the supernatant was read at 650 nm. The vascular permeability was expressed in terms of dye (mg/mouse), which leaked into the peritoneal cavity according to a standard curve of Evans blue dye, as previously described.

Row | Molecule | in vivo binding to endothelial cells compared with PC-Gla (endothelial cells) | interstitial edema, infiltration of inflammatory cells and damage of pulmonary architecture (CLP-induced sepsis [1]) | histopathologic score of pulmonary injury (CLP-induced sepsis [1]) | toxicity indicator for general organs (LDH) (CLP-induced sepsis [2]) | toxicity indicators for kidneys (creatinine and BUN) (CLP-induced sepsis [2]) | toxicity indicators for liver (ALT and AST) (CLP-induced sepsis [2]) | in vivo vascular permeability (CLP-induced sepsis [3])
1 | TFMG: as TFG with an MMP-2 cleavable linker (GPLGLAG) between ferritin fragment C-terminus and PC-Gla (apparently SEQ ID NO: 15) (protein, Fusion polypeptide (2)) MGGTTFLLRNASGHMSSQIRQNYSTDVEAAVNSLVNLYLQASYTYLSLGFYFDRDDVALEGVSHFFRELAEEKREGYERLLKMQNQRGGRIFLQDIKKPAEDEWGKTPDAMKAAMALEKKLNQALLDLHALGSARTDPHLCDFLETHFLDEEVKLIKKMGDHLTNLHRLGGGSEFVDGGGSGTSGPLGLAGANSFLEELRHSSLERECIEEICDFEEAKEIFQNVDDTLAFWSKHVLEHHHHHH | bound more strongly to, and stayed longer on, endothelial cells than PC-Gla did | significantly alleviated | significantly superior effect | considerably improved | considerably improved | considerably improved | alleviated
2 | TFG: fusion polypeptide: TRAP at N-terminus and PC-Gla at C-terminus of short ferritin monomer fragment, forms nanocage (apparently SEQ ID NO: 14) (protein, Fusion polypeptide (1)) MGGTTFLLRNASGHMSSQIRQNYSTDVEAAVNSLVNLYLQASYTYLSLGFYFDRDDVALEGVSHFFRELAEEKREGYERLLKMQNQRGGRIFLQDIKKPAEDEWGKTPDAMKAAMALEKKLNQALLDLHALGSARTDPHLCDFLETHFLDEEVKLIKKMGDHLTNLHRLGGGSEFVDGGGSGTSANSFLEELRHSSLERECIEEICDFEEAKEIFQNVDDTLAFWSKHVLEHHHHHH | bound more strongly to, and stayed longer on, endothelial cells than PC-Gla did | significantly alleviated | significantly superior effect | considerably improved | considerably improved | considerably improved | alleviated
